Test results as given in US20170189510A1.

B1: peptide SEQ ID No 172 … (peptide)
peptide: TYTTVPRVAF
B2: peptide SEQ ID No 177 … (peptide)
peptide: VYPWLGALL
B3: peptide SEQ ID No 178 … (peptide)
peptide: IFIEVFSHF
B4: peptide SEQ ID No 179 … (peptide)
peptide: MYDSYWRQF
B5: peptide SEQ ID No 180 … (peptide)
peptide: IYDDSFIRPVTF
B6: peptide SEQ ID No 181 … (peptide)
peptide: LYLDIINLF
B7: peptide SEQ ID No 182 … (peptide)
peptide: IYQLDTASI
B8: peptide SEQ ID No 183 … (peptide)
peptide: VFTSTARAF
B9: peptide SEQ ID No 184 … (peptide)
peptide: VFQNFPLLF
B10: peptide SEQ ID No 185 … (peptide)
peptide: IYKVGAPTI
B11: peptide SEQ ID No 186 … (peptide)
peptide: IFPQFLYQF
B12: peptide SEQ ID No 187 … (peptide)
peptide: TYLRDQHFL
B13: peptide SEQ ID No 188 RYFKGLVF (peptide)
peptide: RYFKGLVF
B14: peptide SEQ ID No 189 … (peptide)
peptide: WYVNGVNYF
B15: peptide SEQ ID No 190 … (peptide)
peptide: GFFIFNERF
B16: peptide SEQ ID No 191 … (peptide)
peptide: VFKASKITF
B17: peptide SEQ ID No 192 … (peptide)
peptide: SYALLTYMI
B18: peptide SEQ ID No 193 … (peptide)
peptide: RFHPTPLLL
B19: peptide SEQ ID No 194 … (peptide)
peptide: EFGSLHLEFL
B20: peptide SEQ ID No 198 … (peptide)
peptide: LYLDKATLI
B21: peptide SEQ ID No 203 … (peptide)
peptide: FYSRLLQKF
B22: peptide SEQ ID No 205 … (peptide)
peptide: VHIPEVYLI
B23: peptide SEQ ID No 206 … (peptide)
peptide: EYQENFLSF
B24: peptide SEQ ID No 208 … (peptide)
peptide: TYTQDFNKF
B25: peptide SEQ ID No 210 … (peptide)
peptide: IYTMIYRNL
B26: peptide SEQ ID No 211 … (peptide)
peptide: YYLEVGKTLI
B27: peptide SEQ ID No 214 … (peptide)
peptide: LYLKLWNLI
B28: peptide SEQ ID No 215 YFDKVVTL (peptide)
peptide: YFDKVVTL
B29: peptide SEQ ID No 216 … (peptide)
peptide: QYSSVFKSL
B30: peptide SEQ ID No 217 … (peptide)
peptide: FFPPTRQMGLLF
B31: peptide SEQ ID No 219 … (peptide)
peptide: EYPLVINTL
B32: peptide SEQ ID No 221 … (peptide)
peptide: RYSTGLAGNLL
B33: peptide SEQ ID No 223 … (peptide)
peptide: KYIPYKYVI
B34: peptide SEQ ID No 224 … (peptide)
peptide: QYLENLEKL
B35: peptide SEQ ID No 225 … (peptide)
peptide: YYVYIMNHL
B36: peptide SEQ ID No 226 … (peptide)
peptide: VYRDETGELF
B37: peptide SEQ ID No 227 … (peptide)
peptide: IFLDYEAGTLSF
B38: peptide SEQ ID No 228 … (peptide)
peptide: KYTSWYVAL
B39: peptide SEQ ID No 267 … (peptide)
peptide: KYMVYPQTF
B40: peptide SEQ ID No 271 … (peptide)
peptide: LYHDIFSRL
B41: peptide SEQ ID No 272 … (peptide)
peptide: QYLQDAYSF
B42: peptide SEQ ID No 273 … (peptide)
peptide: TYIKPISKL
B43: peptide SEQ ID No 274 … (peptide)
peptide: AYLHSHALI
B44: peptide SEQ ID No 275 … (peptide)
peptide: EYINQGDLHEF
B45: peptide SEQ ID No 276 … (peptide)
peptide: VYGFQWRHF
B46: peptide SEQ ID No 278 … (peptide)
peptide: RYISDQLFTNF
B47: peptide SEQ ID No 279 … (peptide)
peptide: TYIESASEL
B48: peptide SEQ ID No 280 … (peptide)
peptide: RYPDNLKHLYL
B49: peptide SEQ ID No 282 … (peptide)
peptide: KFVDSTFYL
B50: peptide SEQ ID No 283 … (peptide)
peptide: TYGDAGLTYTF
B51: peptide SEQ ID No 284 … (peptide)
peptide: RYLNKAFHI
B52: peptide SEQ ID No 286 … (peptide)
peptide: RYPDNLKHL
B53: peptide SEQ ID No 288 … (peptide)
peptide: VYVSDIQEL
B54: peptide SEQ ID No 289 … (peptide)
peptide: KYPVEWAKF
B55: peptide SEQ ID No 158 … (peptide)
peptide: HYSQELSLLYL
B56: peptide SEQ ID No 159 … (peptide)
peptide: LYNKGFIYL
B57: peptide SEQ ID No 160 … (peptide)
peptide: VYTLDIPVL
B58: peptide SEQ ID No 161 … (peptide)
peptide: IYLVSIPEL
B59: peptide SEQ ID No 162 … (peptide)
peptide: VFTRVSSFL
B60: peptide SEQ ID No 163 … (peptide)
peptide: DYLKGLASF
B61: peptide SEQ ID No 164 … (peptide)
peptide: KFSSFSLFF
B62: peptide SEQ ID No 165 … (peptide)
peptide: DYTTWTALL
B63: peptide SEQ ID No 166 … (peptide)
peptide: YYVESGKLF
B64: peptide SEQ ID No 167 … (peptide)
peptide: NYINRILKL
B65: peptide SEQ ID No 168 … (peptide)
peptide: KYQDILETI
B66: peptide SEQ ID No 169 … (peptide)
peptide: AYTLIAPNI
B67: peptide SEQ ID No 170 … (peptide)
peptide: VYEDQVGKF
B68: peptide SEQ ID No 171 … (peptide)
peptide: LFIPSSKLLFL
B69: peptide SEQ ID No 173 … (peptide)
peptide: IYSWILDHF
B70: peptide SEQ ID No 174 … (peptide)
peptide: VYVGGGQIIHL
B71: peptide SEQ ID No 175 … (peptide)
peptide: YYEVHKELF
B72: peptide SEQ ID No 176 … (peptide)
peptide: EYNQWFTKL
B73: peptide SEQ ID No 195 … (peptide)
peptide: TYSVSFPMF
B74: peptide SEQ ID No 196 … (peptide)
peptide: LYIDRPLPYL
B75: peptide SEQ ID No 197 … (peptide)
peptide: EYSLFPGQVVI

Biological target: HLA-A*24 (human)
Assay: UV-ligand exchange, anti-b2m ELISA

Question: For B1, which peptide exchange yield is on record?
Answer: The peptide exchange yield was over 75%.

Question: How did the peptide exchange yield turn out when B2 was run?
Answer: The peptide exchange yield was over 75%.

Question: With B3 as the binder, how does the peptide exchange yield read?
Answer: Its peptide exchange yield is 50 to 75%.

Question: For B4, which peptide exchange yield is on record?
Answer: The peptide exchange yield was over 75%.

Question: With B5 as the binder, how does the peptide exchange yield read?
Answer: Its peptide exchange yield is 50 to 75%.

Question: Which peptide exchange yield does the source give for B6 here?
Answer: Its peptide exchange yield is over 75%.

Question: With B7 as the binder, how does the peptide exchange yield read?
Answer: The peptide exchange yield was 50 to 75%.

Question: With B8 as the binder, how does the peptide exchange yield read?
Answer: The peptide exchange yield was 50 to 75%.

Question: Which peptide exchange yield does the source give for B9 here?
Answer: The peptide exchange yield was over 75%.

Question: With B10 as the binder, how does the peptide exchange yield read?
Answer: The peptide exchange yield was 50 to 75%.

Question: With B11 as the binder, how does the peptide exchange yield read?
Answer: Its peptide exchange yield is over 75%.

Question: How did the peptide exchange yield turn out when B12 was run?
Answer: The peptide exchange yield was over 75%.

Question: For B13, which peptide exchange yield is on record?
Answer: Its peptide exchange yield is 50 to 75%.

Question: With B14 as the binder, how does the peptide exchange yield read?
Answer: The peptide exchange yield was 20 to 49%.

Question: B15 was tested. Which peptide exchange yield did it give?
Answer: Its peptide exchange yield is 50 to 75%.

Question: How did the peptide exchange yield turn out when B16 was run?
Answer: The peptide exchange yield was 50 to 75%.

Question: With B17 as the binder, how does the peptide exchange yield read?
Answer: The peptide exchange yield was over 75%.

Question: How did the peptide exchange yield turn out when B18 was run?
Answer: Its peptide exchange yield is over 75%.

Question: B19 was tested. Which peptide exchange yield did it give?
Answer: The peptide exchange yield was under 20%.

Question: How did the peptide exchange yield turn out when B20 was run?
Answer: The peptide exchange yield was 50 to 75%.

Question: For B21, which peptide exchange yield is on record?
Answer: Its peptide exchange yield is 50 to 75%.

Question: B22 was tested. Which peptide exchange yield did it give?
Answer: Its peptide exchange yield is 50 to 75%.

Question: How did the peptide exchange yield turn out when B23 was run?
Answer: The peptide exchange yield was 50 to 75%.

Question: For B24, which peptide exchange yield is on record?
Answer: Its peptide exchange yield is 50 to 75%.

Question: Which peptide exchange yield does the source give for B25 here?
Answer: Its peptide exchange yield is over 75%.

Question: For B26, which peptide exchange yield is on record?
Answer: Its peptide exchange yield is over 75%.

Question: For B27, which peptide exchange yield is on record?
Answer: Its peptide exchange yield is 50 to 75%.

Question: B28 was tested. Which peptide exchange yield did it give?
Answer: The peptide exchange yield was 20 to 49%.

Question: Which peptide exchange yield does the source give for B29 here?
Answer: Its peptide exchange yield is over 75%.

Question: B30 was tested. Which peptide exchange yield did it give?
Answer: Its peptide exchange yield is over 75%.

Question: Which peptide exchange yield does the source give for B31 here?
Answer: The peptide exchange yield was 50 to 75%.

Question: With B32 as the binder, how does the peptide exchange yield read?
Answer: Its peptide exchange yield is 50 to 75%.

Question: With B33 as the binder, how does the peptide exchange yield read?
Answer: The peptide exchange yield was 50 to 75%.

Question: Which peptide exchange yield does the source give for B34 here?
Answer: Its peptide exchange yield is 50 to 75%.

Question: B35 was tested. Which peptide exchange yield did it give?
Answer: Its peptide exchange yield is 50 to 75%.

Question: How did the peptide exchange yield turn out when B36 was run?
Answer: Its peptide exchange yield is 50 to 75%.

Question: Which peptide exchange yield does the source give for B37 here?
Answer: Its peptide exchange yield is over 75%.

Question: For B38, which peptide exchange yield is on record?
Answer: The peptide exchange yield was over 75%.

Question: How did the peptide exchange yield turn out when B39 was run?
Answer: The peptide exchange yield was over 75%.

Question: B40 was tested. Which peptide exchange yield did it give?
Answer: The peptide exchange yield was over 75%.

Question: With B41 as the binder, how does the peptide exchange yield read?
Answer: Its peptide exchange yield is over 75%.

Question: For B42, which peptide exchange yield is on record?
Answer: Its peptide exchange yield is 50 to 75%.

Question: With B43 as the binder, how does the peptide exchange yield read?
Answer: Its peptide exchange yield is over 75%.

Question: With B44 as the binder, how does the peptide exchange yield read?
Answer: The peptide exchange yield was 50 to 75%.

Question: Which peptide exchange yield does the source give for B45 here?
Answer: The peptide exchange yield was over 75%.

Question: Which peptide exchange yield does the source give for B46 here?
Answer: Its peptide exchange yield is over 75%.

Question: Which peptide exchange yield does the source give for B47 here?
Answer: The peptide exchange yield was 50 to 75%.

Question: B48 was tested. Which peptide exchange yield did it give?
Answer: The peptide exchange yield was over 75%.

Question: Which peptide exchange yield does the source give for B49 here?
Answer: Its peptide exchange yield is over 75%.

Question: With B50 as the binder, how does the peptide exchange yield read?
Answer: Its peptide exchange yield is 50 to 75%.

Question: B51 was tested. Which peptide exchange yield did it give?
Answer: The peptide exchange yield was 50 to 75%.

Question: B52 was tested. Which peptide exchange yield did it give?
Answer: The peptide exchange yield was 20 to 49%.

Question: With B53 as the binder, how does the peptide exchange yield read?
Answer: The peptide exchange yield was 50 to 75%.

Question: How did the peptide exchange yield turn out when B54 was run?
Answer: The peptide exchange yield was over 75%.

Question: Which peptide exchange yield does the source give for B55 here?
Answer: Its peptide exchange yield is over 75%.

Question: How did the peptide exchange yield turn out when B56 was run?
Answer: Its peptide exchange yield is over 75%.

Question: For B57, which peptide exchange yield is on record?
Answer: Its peptide exchange yield is over 75%.

Question: For B58, which peptide exchange yield is on record?
Answer: The peptide exchange yield was over 75%.

Question: For B59, which peptide exchange yield is on record?
Answer: Its peptide exchange yield is 50 to 75%.

Question: With B60 as the binder, how does the peptide exchange yield read?
Answer: The peptide exchange yield was over 75%.

Question: Which peptide exchange yield does the source give for B61 here?
Answer: The peptide exchange yield was 50 to 75%.

Question: B62 was tested. Which peptide exchange yield did it give?
Answer: The peptide exchange yield was over 75%.

Question: How did the peptide exchange yield turn out when B63 was run?
Answer: Its peptide exchange yield is over 75%.

Question: How did the peptide exchange yield turn out when B64 was run?
Answer: Its peptide exchange yield is over 75%.

Question: How did the peptide exchange yield turn out when B65 was run?
Answer: Its peptide exchange yield is over 75%.

Question: With B66 as the binder, how does the peptide exchange yield read?
Answer: Its peptide exchange yield is 50 to 75%.

Question: Which peptide exchange yield does the source give for B67 here?
Answer: Its peptide exchange yield is 20 to 49%.

Question: With B68 as the binder, how does the peptide exchange yield read?
Answer: The peptide exchange yield was 50 to 75%.

Question: B69 was tested. Which peptide exchange yield did it give?
Answer: The peptide exchange yield was over 75%.

Question: B70 was tested. Which peptide exchange yield did it give?
Answer: The peptide exchange yield was 50 to 75%.

Question: For B71, which peptide exchange yield is on record?
Answer: Its peptide exchange yield is over 75%.

Question: With B72 as the binder, how does the peptide exchange yield read?
Answer: The peptide exchange yield was 50 to 75%.

Question: For B73, which peptide exchange yield is on record?
Answer: Its peptide exchange yield is over 75%.

Question: For B74, which peptide exchange yield is on record?
Answer: The peptide exchange yield was 50 to 75%.

Question: Which peptide exchange yield does the source give for B75 here?
Answer: The peptide exchange yield was 50 to 75%.
